{
  "source": "paper PMC8096250",
  "target": "Nhp2 (W);Cbf5;Nop10;Gar1 (Saccharomyces cerevisiae;Saccharomyces cerevisiae;Saccharomyces cerevisiae;Saccharomyces cerevisiae) (UniProt P33322+Q6Q547+P28007)",
  "test": "smFRET",
  "conditions": "substrate RNA binding to the reconstituted H5 RNP; substrate is an analogue RNA; sequence as assayed not given; smFRET with immobilized 3'-biotin RNA; smFRET buffer not in the material (RNP reconstitution for activity assays: 12.5 mM Tris/HCl pH 8.0, 250 mM NaCl, 30 °C)",
  "data": [
    {"substance": "H5 U61-donor snoRNA with acceptor-labeled H5 substrate RNA", "values": [
      {"measurement": "binding signal (% of RNPs substrate bound)", "value": 37}
    ]}
  ]
}
